Experimental data reported in paper PMC7286819, “SIRT7 activates p53 by enhancing PCAF-mediated MDM2 degradation to arrest the cell cycle” (Oncogene, 2020).

Biological target: T1, Full-length His-PCAF fusion protein (UniProt Q92831 1-832)
T1 construct: PCAF, full length, cDNA cloned into pET-28a; source: E. coli, purified
Test: pull-down; GST or GST-SIRT7 on glutathione-Sepharose 4B beads incubated with 6xHis-tagged PCAF from E. coli at 4 C overnight; washed with TEN buffer (0.5% NP-40, 20 mM Tris pH 7.4, 0.1 mM EDTA, 300 mM NaCl); immunoblot
Conditions: both partners purified

T1 sequence (Q92831 whole entry, the tested form may be a part): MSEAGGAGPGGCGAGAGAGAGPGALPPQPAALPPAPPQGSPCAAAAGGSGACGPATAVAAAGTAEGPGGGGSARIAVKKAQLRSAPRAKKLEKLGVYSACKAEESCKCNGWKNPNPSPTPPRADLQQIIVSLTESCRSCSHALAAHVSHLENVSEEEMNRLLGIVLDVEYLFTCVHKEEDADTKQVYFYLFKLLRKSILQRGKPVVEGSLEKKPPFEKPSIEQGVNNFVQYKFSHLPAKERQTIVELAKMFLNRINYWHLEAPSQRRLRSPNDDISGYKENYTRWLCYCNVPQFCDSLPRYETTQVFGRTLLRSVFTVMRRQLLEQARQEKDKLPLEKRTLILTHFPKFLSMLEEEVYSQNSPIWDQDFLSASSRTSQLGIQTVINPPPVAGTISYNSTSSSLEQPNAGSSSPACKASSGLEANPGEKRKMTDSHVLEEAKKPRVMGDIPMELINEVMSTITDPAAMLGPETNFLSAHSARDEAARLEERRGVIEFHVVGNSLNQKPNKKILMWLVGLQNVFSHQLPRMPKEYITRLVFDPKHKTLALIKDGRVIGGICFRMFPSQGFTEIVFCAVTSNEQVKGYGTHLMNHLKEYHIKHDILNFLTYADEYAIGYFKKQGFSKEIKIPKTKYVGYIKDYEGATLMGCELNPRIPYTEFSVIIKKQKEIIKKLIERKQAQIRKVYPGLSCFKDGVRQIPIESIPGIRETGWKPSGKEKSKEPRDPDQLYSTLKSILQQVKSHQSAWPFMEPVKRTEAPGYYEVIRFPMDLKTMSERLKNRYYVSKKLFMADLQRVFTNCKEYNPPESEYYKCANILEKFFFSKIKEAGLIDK

B1: full-length GST-tagged SIRT7 (natural protein, UniProt Q9NRC8 1-400, looked up)
chain: MAAGGLSRSERKAAERVRRLREEQQRERLRQVSRILRKAAAERSAEEGRLLAESADLVTELQGRSRRREGLKRRQEEVCDDPEELRGKVRELASAVRNAKYLVVYTGAGISTAASIPDYRGPNGVWTLLQKGRSVSAADLSEAEPTLTHMSITRLHEQKLVQHVVSQNCDGLHLRSGLPRTAISELHGNMYIEVCTSCVPNREYVRVFDVTERTALHRHQTGRTCHKCGTQLRDTIVHFGERGTLGQPLNWEAATEAASRADTILCLGSSLKVLKKYPRLWCMTKPPSRRPKLYIVNLQWTPKDDWAALKLHGKCDDVMRLLMAELGLEIPAYSRWQDPIFSLATPLRAGEEGSHSRKSLCRSREEAPPGDRGAPLSSAPILGGWFGRGCTKRTKRKKVT
notes: SIRT7, full length, cDNA cloned into pGEX-4T1; also called GST-SIRT7; full-length (FL) SIRT7; source: E. coli, purified on glutathione-Sepharose 4B beads
B1: binds.
